From patent US20160177324A1, “NOVEL PROTEIN AND GENE RELATED TO FLAVONOID O-METHYLTRANSFERASE (FOMT) AND THEIR USES THEREFORE” (INSTITUTE OF BOTANY, THE CHINESE ACADEMY OF SCIENCES, priority 2013, published 2016)

Legend:
[1] = system: Fragaria×ananassa cv. 'Hongyan' fruits; assay: Transient expression in strawberry fruit (coexpression with PAP1); assay type: in vivo
Description: A strawberry cultivar, Fragaria×ananassa cv. ‘Hongyan’ (The Beijing Agricultural Technology Extension Station) with fruits turning red were chosen as subjects. A single colony of Agrobacterium strain EHA105 with pBI121-FOMT construct was inoculated, and the pellet were centrifuged and washed with infiltration buffer (50 mM Mes, pH 5.6, 2 mM Na3PO4, 0.5% glucose (w/v), and 100 mM acetosyringone) according to Hoffmann et al. (Hoffmann, T., G. Kalinowski, and W. Schwab, RNAi-induced silencing of gene expression in strawberry fruit (Fragaria×ananassa) by agroinfiltration: a rapid assay for gene function analysis. Plant Journal, 2006. 48(5): p. 818-826.). The bacterial suspension was diluted with infiltration buffer to adjust the inoculum concentration to OD600 0.1-0.3. A syringe infiltration method was used to transient transform strawberry fruits. The infiltrated fruits were harvested after four days for anthocyanin content analyses as follow. […] The MS conditions were listed as follow: negative-ion (NI) mode; capillary voltage of 3.5 kV; a nebulization pressure of 241.3 kPa; and a gas (N2) temperature of 350° C. with flow rate of 6.0 L min^−1 Capillary offset voltage was 77.2 V. MS spectra were recorded over the range from m/z 50-1000.

[2] = Biochemical characterization of PsFOMT reaction conditions (pH, temperature, divalent cations, Mg2+ concentration)
Description: For quantitative analyses, reaction conditions were optimized. The pH dependence of FOMTs activity was assessed in the pH range of 4.5 to 8.5 using MES (4.5-6.5) and Tris-HCl (7.5-8.5) buffer. The effect of divalent cations on enzyme activity was estimated by adding to the reaction mixture containing 10 mM MgCl2, CaCl2, ZnCl2, MnCl2, CoCl2 or EDTA. The proper concentration of metal ion was assessed by testing different concentrations of MgCl2 (0.1, 0.2, 0.5, 1.0, 5.0 and 10 mM). Incubation temperature was set at 25, 30, 35 and 40° C. to detect the effect on enzyme activity.
(§1) The reaction system was according to Hugueney et al. with some modification (Hugueney, P., et al., A novel cation-dependent O-methyltransferase involved in anthocyanin methylation in grapevine. Plant Physiology, 2009. 150(4): p. 2057-2070.). Purified recombinant FOMT (2 μg) was assayed in a final volume of 200 μL containing 200 μM SAM, 1 mM MgCl2, 14 mM β-mercaptoethanol, 100 mM Tris, pH 7.5, and 20 μM flavonoid substrates. Incubation was performed at 35° C. and stopped with 200 μL methanol containing 2% formic acid. For enzyme kinetic studies, purified FOMT was incubated based on the above condition with the exception that a range of substrate concentrations from 5 to 200 μM were used for Km determination. Reaction product was analyzed by a Dionex HPLC system (Sunnyvale, Calif.), equipped with a P680 HPLC pump, an UltiMate 3000 autosampler, a TCC-100 thermostated column compartment and a Dionex PDA100 photodiode array detector. The analytical column was C18 column of ODS 80Ts QA (150 mm×4.6 mm, 5 μm i.d., Tosoh, Tokyo) protected with a C18 guard cartridge (Shanghai ANPEL Scientific Instrument, Shanghai). The following solvent and gradient were used: A, 10% aqueous formic acid; B, methanol; constant gradient from 10 to 36% B within 15 min and back to 10% B in 3 min; the flow rate was 0.8 mL min^−1; Column temperature was maintained at 35° C.; 20 μL of analyte was injected. Chromatograms were obtained at 525 nm for anthocyanins and 350 nm for other flavonoids, and photodiode array spectra were recorded from 200 to 800 nm. Km and Vmax values were calculated from Lineweaver-Burk plots.

[3] = Comparison of activities among recombinant polypeptides with site mutagenesis; assay type: biochemical; details: Cy3G5G as substrate
Description: as §1
To validate the key amino acid responsible for the activity, site-directed mutagenesis was carried out using the PCR method and Fast Mutagenesis System (TransGen), and primer sequences used are given in Table 1. Four constructs were built following the template sequence of PtFOMT, named as PtFOMT-G13E, PtFOMT-T85A, PtFOMT-R87L, and PtFOMT-T205R. The corresponding recombinant proteins were purified and the catalytic activities were examined. […] The other mutants have no significant improved activity compared with PtFOMT. The leucine at 87-position is a vital residue for the methyltransferase activity.

B1: PsFOMT: flavonoid O-methyltransferase from tree peony Paeonia suffruticosa cv. 'Gunpohden', SEQ ID NO: 3; recombinant MBP fusion protein (protein, listed as Paeonia suffruticosa)
chain: MAESDRKGILKSEALLKYILETSVYPREHEQLKQLRQATVDKYKYWSVMNVPADEGQFLSMLLKIMNAKKTIEVGVFTGYSLLTAALALPTDAKITAIDPDGEAYETGLPFIKKAGVEHKINYIQADAMSVLDDLVTNGKEEGSFDFAFVDADKENYAKYHEPLMKLVKIGGIIGYDNTLWFGSVALSDGDEMKEFQEKGRRIFREFNTFLAADPRIELAHISIGDGLALCRRLY
modifications: MBP fusion
notes: recombinant MBP fusion protein
[1]
  proportion of methylated products (Pn type) to precursors (Cy type): more than that of PtFOMT
[2]; 10 mM EDTA
  activity in the presence of EDTA: could not been detected
[2]; 10 mM MgCl2, CaCl2, ZnCl2, MnCl2, CoCl2
  influence of different divalent cations on activity: most active in the presence of Mg^2+
[2]; 25-40° C.
  effect of increasing incubation temperature on activity: accelerated
[2]; MgCl2 0.1-10 mM tested
  optimal concentration of Mg^2+: 1.0 mM
[2]; on the substrate of Qu3R
  pH optimum: 7.5
[2]; substrate Qu3R, pH 4.5 to 8.5 tested
  pH dependence range of activity in vitro: 6.5-8.5
[3]; Incubation 5 min
  Activity (%), portion of recombinant protein activity compared with PsFOMT: 100%
[3]; Incubation 30 min
  Activity (%), portion of recombinant protein activity compared with PsFOMT: 100%
